The values below come from article PMC3068226 (Biochemistry, 2011).

Data set [1] deals with T1, BSA (Bos taurus, UniProt P02769). The data set is described as follows: Binding to BSA by fluorescence quenching of albumin tryptophan. The conditions noted are these: double logarithmic plot (Eq. 6), less than 1 mol/mol dye to albumin.
The format of data set [2] is in vivo, mouse. To be noted: for change in kurtosis over time after injection: mouse ear, LS224 over 6 h, LS296 within 3 h.
The target of data set [3] is T1, BSA.

T1 sequence (P02769 25-607): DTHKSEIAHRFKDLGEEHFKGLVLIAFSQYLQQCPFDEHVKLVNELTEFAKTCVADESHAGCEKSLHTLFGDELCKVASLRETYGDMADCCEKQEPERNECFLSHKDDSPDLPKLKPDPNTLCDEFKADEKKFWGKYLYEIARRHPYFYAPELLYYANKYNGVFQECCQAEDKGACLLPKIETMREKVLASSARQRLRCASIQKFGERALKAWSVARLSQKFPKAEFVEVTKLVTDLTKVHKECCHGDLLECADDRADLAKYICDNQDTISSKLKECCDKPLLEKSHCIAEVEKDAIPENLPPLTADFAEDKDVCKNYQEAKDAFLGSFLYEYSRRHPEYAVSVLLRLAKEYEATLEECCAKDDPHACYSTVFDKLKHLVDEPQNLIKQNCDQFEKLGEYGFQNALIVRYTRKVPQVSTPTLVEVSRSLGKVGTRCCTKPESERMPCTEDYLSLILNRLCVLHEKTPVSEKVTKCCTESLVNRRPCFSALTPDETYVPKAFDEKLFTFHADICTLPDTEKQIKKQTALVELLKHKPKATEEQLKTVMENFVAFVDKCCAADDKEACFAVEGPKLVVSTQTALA

For `CC1(C)C(/C=C/C=C/C=C/C=C2\N(CCCCS(=O)(=O)O)c3ccc4ccccc4c3C2(C)C)=[N+](CCCCS(=O)(=O)[O-])c2ccc3ccccc3c21` [ICG, indocyanine green], the “number of binding sites n on albumin” value on BSA [1] amounted to 1.012 ± 0.0212.
For the compound `CC1(C)C(=CC=C2CCCC(C=CC3=[N+](CCCCCC(=O)[O-])c4ccc(S(=O)(=O)[O-])cc4C3(C)C)=C2Oc2ccc(S(=O)(=O)[O-])cc2)N(CCCCS(=O)(=O)[O-])c2ccc(S(=O)(=O)[O-])cc21.[Na+].[Na+].[Na+].[Na+]` [IRdye800CW, reference compound], the “initial kurtosis value at the first time point” value in data set [2] (mouse ear ROI, 2 min after injection) is given as “less than 1”. In addition, the “time of peak fluorescence intensity in ROI after injection” value in data set [2] (mouse ear ROI, intravenous injection, ex/em 780/800 nm) was in the range of 20 to 30 min. On BSA [3], the “binding constant K to BSA” value is on record as ~6,100 M^−1.
“Cypate-DPhe-Cyclo(Cys-Tyr-DTrp-Lys-Thr-Cys)-Thr-OH (disulfide) [LS224]”: the “change in kurtosis over time after injection” value in data set [2] (ex/em 780/800 nm) was “no changes in kurtosis”. Also, the “K, M^−1 (binding constants to BSA in PBS buffer)” value with BSA [3] is given as 51,000 M^−1.
For “Cypate-Gly-Arg-Asp-Ser-Pro-Lys-OH [LS39]”, the “K, M^−1 (binding constants to BSA in PBS buffer)” value with BSA [3] was 76,000 M^−1.
With “LS276-DPhe-Cyclo(Cys-Tyr-DTrp-Lys-Thr- Cys)-Thr-OH (disulfide) [LS296]”, the “change in kurtosis over time after injection” value in data set [2] (ex/em 780/800 nm) is reported as “dramatic changes”. The “K, M^−1 (binding constants to BSA in PBS buffer)” value with BSA [3] is listed as 14,880 M^−1.
